Experimental data published in patent publication US20180245061A1, “Modified Heterocyclase” (THE UNIVERSITY COURT OF THE UNIVERSITY OF ABERDEEN, priority 2014, published 2018).
Where a chain is given by its changes, count along the chain named. Names may count otherwise.

What was measured:
[1] = biological target: Lyngbya sp. LynD heterocyclase (SEQ ID NO: 1) variant R427E; experiment: ITC nucleotide binding (ATP/AMP) to LynD R427E; parameters: species or system Lyngbya sp. PCC 8106; conditions: 20° C., pH 7.4, 5 mM MgCl2
Protocol: (§1) Codon optimized full-length LynD (Lyngbya sp. PCC 8106) with an N-terminal TEV protease-cleavable His6-tag was purchased from DNA2.0 in the pJexpress411 plasmid. The protein was expressed in Escherichia coli BL21 (DE3) grown on auto-induction medium {Studier, 2005, Protein expression and purification, 41, 207-234} for 48 h at 20° C. Cells were harvested by centrifugation at 4,000×g, 4° C. for 15 min and re-suspended in lysis buffer (500 mM NaCl, 20 mM Tris pH 8.0, 20 mM imidazole and 3 mM β-mercaptoethanol (BME)) with the addition of complete EDTA-free protease inhibitor tablets (Roche) and 0.4 mg DNase g^−1 wet cells (Sigma). Cells were lysed by passage through a cell disruptor at 30 kPSI (Constant Systems Ltd) and the lysate was cleared by centrifugation at 40,000×g, 4° C. for 20 min. The cleared lysate was applied to a Nickel Sepharose 6 Fast Flow (GE Healthcare) column pre-washed with lysis buffer and protein eluted with 250 mM imidazole. The protein was then passed over a desalting column (Desalt 16/10, GE Healthcare) in 100 mM NaCl, 20 mM Tris pH 8.0, 20 mM imidazole, 3 mM BME. Tobacco etch virus (TEV) protease was added to the protein at a mass-to-mass ratio of 1:10 and the protein digested for 2 h at 20° C. to remove the Hiss-tag. However, removal of the Hiss-tag was not essential for activity and so less vigorous methods for purification may also be used. […]

[2] = biological target: Lyngbya sp. LynD heterocyclase, wild type, SEQ ID NO: 1; experiment: ITC nucleotide binding (ATP/AMP) to LynD; parameters: species or system Lyngbya sp. PCC 8106; conditions: 20° C., pH 7.4, 5 mM MgCl2, one-site model, stoichiometry set to 1, read-out: Nucleotide KD (ATP)
Protocol: as §1

[3] = biological target: Lyngbya sp. LynD heterocyclase (SEQ ID NO: 1) variant E423R; experiment: ITC nucleotide binding (ATP/AMP) to LynD E423R; parameters: species or system Lyngbya sp. PCC 8106; conditions: 20° C., pH 7.4, 5 mM MgCl2
Protocol: as §1

[4] = biological target: Lyngbya sp. LynD heterocyclase (SEQ ID NO: 1) variant K409A; experiment: ITC nucleotide binding (ATP/AMP) to LynD K409A; parameters: species or system Lyngbya sp. PCC 8106; conditions: 20° C., pH 7.4, 5 mM MgCl2
Protocol: as §1

[5] = biological target: Lyngbya sp. LynD heterocyclase (SEQ ID NO: 1) variant K409E; experiment: ITC nucleotide binding (ATP/AMP) to LynD K409E; parameters: species or system Lyngbya sp. PCC 8106; conditions: 20° C., pH 7.4, 5 mM MgCl2
Protocol: as §1

[6] = biological target: Lyngbya sp. LynD heterocyclase (SEQ ID NO: 1) variant R636E; experiment: ITC nucleotide binding (ATP/AMP) to LynD R636E; parameters: species or system Lyngbya sp. PCC 8106; conditions: 20° C., pH 7.4, 5 mM MgCl2
Protocol: as §1

PatE' L26R [7] = biological target: T1, PatE' L26R; experiment: ITC, 20 C
T1 peptide: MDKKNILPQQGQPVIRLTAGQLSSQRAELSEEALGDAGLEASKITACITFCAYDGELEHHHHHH

PatE' E31R = biological target: T2, PatE' E31R; experiment: ITC, 20 C
T2 construct: Point mutant of PatE'
T2 peptide: T1 peptide with R26L, E31R

PatE' L29R = biological target: T3, PatE' L29R; experiment: ITC, 20 C
T3 construct: Point mutant of PatE'
T3 peptide: T1 peptide with R26L, L29R

[8] = biological target: the molecule itself; experiment: X-ray crystal structures; gel filtration suggested a dimer
PatE' E32R [9] = biological target: T4, PatE' E32R; experiment: ITC, 20 C, one-site model with stoichiometry set to 1; LynD in the cell, peptide in the syringe
T4 construct: Point mutant of PatE'
T4 peptide: T1 peptide with R26L, E32R

[10] = biological target: T5, PatE' (precursor peptide PatE variant, 64 amino acids, full leader, single core peptide ITACITFC, C-terminal …); experiment: as above
T5 peptide: T1 peptide with R26L

PatE' C51A = biological target: T6, PatE' C51A; experiment: X-ray co-crystal structures LynD/ATP/PatE'C51A (2.14 A) and LynD/beta,gamma-imido-ATP/PatE'C51A (3.01 A)
T6 peptide: T1 peptide with R26L, C51A

[11] = biological target: T7, minimal leader LAELSEEAL synthetic peptide
T7 chain: LAELSEEAL

[12] = biological target: T8, full-length PatE'4 leader peptide (tryptic fragment of PatE' D2Y, K3E, K4E, R16E)
T8 chain: T1 peptide with D2Y, K3E, K4E, R16E, R26L

PatE′ = experiment: Heterocyclization reaction with PatE′, MS analysis; format: biochemical; conditions: 2 μM enzyme, 5 mM ATP, 5 mM MgCl2, 16 h at 37° C.; TABLE 2
Protocol: (§2) For all heterocyclization reactions, […] PatE′ (and variants,) was incubated with 2 μM enzyme in 150 mM NaCl, 10 mM HEPES pH 7.4, 1 mM TCEP, 5 mM ATP and 5 mM MgCl2 for 16 h at 37° C. Samples were analyzed by ESI or MALDI MS (LCT, Micromass or 4800 MALDI TOF/TOF Analyzer, ABSciex). For cis trans activation studies, 100 μM ITACITFCAYDG synthetic test peptide (Peptide Protein Research Ltd) was reacted with 5 μM heterocyclase enzyme in the presence and absence of 5.5 μM LAELSEEAL synthetic peptide, or 5.5 μM full-length PatE′4 leader peptide. The reaction was carried out in 150 mM NaCl, 10 mM HEPES pH 7.4, 1 mM TCEP, 5 mM ATP and 5 mM MgCl2 for 16 h at 37° C. and analyzed as above. Synthetic peptides were purchased from Peptide Protein Research Ltd.

PatE' L26R [13] = biological target: T1, PatE' L26R; experiment: ITC, 20 C, one-site model with stoichiometry set to 1; LynD mutant in the cell, peptide in the syringe
[14] = biological target: T5, PatE' (precursor peptide PatE variant, …); experiment: as above
PatE′ L26R = experiment: Heterocyclization reaction with PatE′ L26R; format: biochemical; conditions: 2 μM enzyme, 5 mM ATP, 5 mM MgCl2, 16 h at 37° C.
Protocol: as §2

PatE' E32R [15] = biological target: T4, PatE' E32R; experiment: ITC, 20 C, one-site model with stoichiometry set to 1; LynD mutant in the cell, peptide in the syringe
PatE′ E32R = experiment: Heterocyclization reaction with PatE′ E32R; format: biochemical; conditions: 2 μM enzyme, 5 mM ATP, 5 mM MgCl2, 16 h at 37° C.
Protocol: as §2

PatE′, sequence (as listed by the source): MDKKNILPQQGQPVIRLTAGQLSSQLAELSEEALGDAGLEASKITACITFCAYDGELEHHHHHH
PatE′ E32R, sequence (as listed by the source, stated change not applied): as the sequence (as listed by the source) above, with E32R counted along it

## Nc1ncnc2c1ncn2[C@@H]1O[C@H](COP(=O)(O)OP(=O)(O)OP(=O)(O)O)[C@@H](O)[C@H]1O [ATP]
[1]
  Nucleotide KD (ATP): no binding
[2]
  Kd: 50.2 µM
[3]
  Nucleotide KD (ATP): no binding
[4]
  Nucleotide KD (ATP): no binding
[5]
  Nucleotide KD (ATP): no binding
[6]
  Nucleotide KD (ATP): no binding

B1: LynD heterocyclase, full-length (Lyngbya sp. PCC 8106) (enzyme)
chain: MQSTPLLQIQPHFHVEVIEPKQVYLLGEQANHALTGQLYCQILPLLNGQYTLEQIVEKLDGEVPPEYIDYVLERLAEKGYLTEAAPELSSEVAAFWSELGIAPPVAAEALRQPVTLTPVGNISEVTVAALTTALRDIGISVQTPTEAGSPTALNVVLTDDYLQPELAKINKQALESQQTWLLVKPVGSVLWLGPVFVPGKTGCWDCLAHRLRGNREVEASVLRQKQAQQQRNGQSGSVIGCLPTARATLPSTLQTGLQFAATEIAKWIVKYHVNATAPGTVFFPTLDGKIITLNHSILDLKSHILIKRSQCPTCGDPKILQHRGFEPLKLESRPKQFTSDGGHRGTTPEQTVQKYQHLISPVTGVVTELVRITDPANPLVHTYRAGHSFGSATSLRGLRNTLKHKSSGKGKTDSQSKASGLCEAVERYSGIFQGDEPRKRATLAELGDLAIHPEQCLCFSDGQYANRETLNEQATVAHDWIPQRFDASQAIEWTPVWSLTEQTHKYLPTALCYYHYPLPPEHRFARGDSNGNAAGNTLEEAILQGFMELVERDGVALWWYNRLRRPAVDLGSFNEPYFVQLQQFYRENDRDLWVLDLTADLGIPAFAGVSNRKTGSSERLILGFGAHLDPTIAILRAVTEVNQIGLELDKVPDENLKSDATDWLITEKLADHPYLLPDTTQPLKTAQDYPKRWSDDIYTDVMTCVNIAQQAGLETLVIDQTRPDIGLNVVKVTVPGMRHFWSRFGEGRLYDVPVKLGWLDEPLTEAQMNPTPMPF
notes: also called native LynD; cyanobactin heterocyclase LynD
PatE' L26R [7]
  binding result: no binding
PatE' E31R
  binding result: no binding
PatE' L29R
  binding result: no binding
[8]
  binding result: binds
PatE' E32R [9]
  Kd: 18.4 µM
[10]
  Kd: 1.49 µM
PatE' C51A
  binding result: binds
[11]
  acceleration of the turnover of the test peptide […] (trans activation, MALDI TOF MS time course): 6.7- and 5.0-fold, respectively
[12]
  acceleration of the turnover of the test peptide […] (trans activation, MALDI TOF MS time course): 6.7- and 5.0-fold, respectively

B2: LynD Y67D (enzyme)
chain: B1 chain with Y67D
PatE′
  No. of heterocycles, peptide PatE′: 2
PatE' L26R [13]
  Kd: 15.2 µM
[14]
  Kd: 12.9 µM
PatE′ L26R
  No. of heterocycles, peptide PatE′ L26R: 2

B3: LynD R399E (enzyme)
chain: B1 chain with R399E
notes: Point mutant of LynD
PatE′
  No. of heterocycles, peptide PatE′: 2
PatE' E32R [15]
  Kd: 8.55 µM
[14]
  Kd: 10.7 µM
PatE′ E32R
  No. of heterocycles, peptide PatE′ E32R: 2
